Assay results reported in article doi:10.1101/2021.10.13.464218 (bioRxiv, 2021).

B1: IB10 nanobody against intimin, yeast-displayed (VHH)
VHH: QVQLVESGGGSVQAGGSLRLSCKASGFTFPYSDMGWYRQTPGNECELVSTTGPESDPSFWYADSVKGRFTISRDNTKNTVYLQMNDLKPEDTGMYVCASELGAGSGRCYGYHYWGQGTQVTVSS
B2: Nb3 (anti-P53TA) nanobody, yeast-displayed (VHH)
VHH: QVQLQESGGGSVRPGESLRLSCIAAGTLFSGKAVGWYRQAPGKDRELVAALSSGRETYYIGPVKGRFIISRDDNKDTLYLQMNNLKLEDTAIYTCRLGLHWGQGTQVTVSS

What was measured:
[1] = biological target: intimin (EHEC adhesin), overexpressed on the E. coli surface (Escherichia coli O157:H7 (EHEC), …, UniProt P43261); assay: flow cytometry on cells
intimin (EHEC adhesin), overexpressed on the E. coli surface, sequence (P43261 40-934): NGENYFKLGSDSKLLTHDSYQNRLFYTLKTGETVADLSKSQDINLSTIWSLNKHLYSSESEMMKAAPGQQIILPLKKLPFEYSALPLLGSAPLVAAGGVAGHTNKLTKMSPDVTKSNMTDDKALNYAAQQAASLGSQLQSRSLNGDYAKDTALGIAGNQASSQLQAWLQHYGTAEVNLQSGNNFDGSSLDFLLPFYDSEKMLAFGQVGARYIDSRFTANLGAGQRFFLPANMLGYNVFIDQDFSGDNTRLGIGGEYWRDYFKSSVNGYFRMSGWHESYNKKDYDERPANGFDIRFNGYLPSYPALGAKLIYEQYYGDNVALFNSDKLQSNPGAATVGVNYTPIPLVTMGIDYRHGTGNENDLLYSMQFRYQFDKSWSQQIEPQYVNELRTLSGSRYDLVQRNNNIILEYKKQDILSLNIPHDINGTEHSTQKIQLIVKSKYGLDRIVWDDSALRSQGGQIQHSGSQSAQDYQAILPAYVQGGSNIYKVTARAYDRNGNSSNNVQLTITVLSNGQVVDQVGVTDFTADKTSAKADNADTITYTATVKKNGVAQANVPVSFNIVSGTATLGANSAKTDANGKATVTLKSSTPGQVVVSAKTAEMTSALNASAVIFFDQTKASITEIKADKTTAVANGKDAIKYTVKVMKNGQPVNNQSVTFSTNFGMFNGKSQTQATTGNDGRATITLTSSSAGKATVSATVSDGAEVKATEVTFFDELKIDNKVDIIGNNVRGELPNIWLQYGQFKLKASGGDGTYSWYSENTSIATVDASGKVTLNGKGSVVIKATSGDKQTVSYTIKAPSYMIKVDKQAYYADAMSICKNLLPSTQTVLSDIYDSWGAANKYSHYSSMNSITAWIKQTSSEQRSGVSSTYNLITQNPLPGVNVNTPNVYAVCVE

[2] = biological target: Ag2 (EPEA), displayed on E. coli (synthetic EPEA peptide tag (sequence …)); assay: flow cytometry on cells

Binder	binding result [1]	binding result [2]
B1	binds	–
B2	–	no binding
